Source: the supplement of paper PMC7125110
± gives the standard error. Variants at the floor of the assay were thinned out.

B1: glmS ribozyme (parent)
chain: AUAAAAGCGCCAGAACUACAGAAAUGUAGUUGACGAGGAGGAGGUUUAUCGAAUUUUCGGCGGAUGCCUCCAAA

Columns and labels:
Conditions in all cases: with glucosamine-6-phosphate
[1] = variants of: B1; assay: self-cleavage kobs at 160 uM GlcN6P; higher = faster cleavage; RNA array
Method in brief: (§1)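 In situ transcription by E. coli RNA polymerase produced barcoded ribozyme variants on sequenced MiSeq chips, and a hybridised Cy3 probe tracked them at 37 °C. Glucosamine-6-phosphate was flowed in at 40 μM to 10 mM in HEPES/KCl/Mg(OAc)2 buffer. kcat and KM were taken from weighted Michaelis–Menten fits of kobs values from exponential decay fits.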

[2] = variants of: B1; assay: self-cleavage kobs at 640 uM GlcN6P; higher = faster cleavage; RNA array
Method in brief: as §1

[3] = variants of: B1; assay: self-cleavage kobs at 2500 uM GlcN6P; higher = faster cleavage; RNA array
Method in brief: as §1

[4] = variants of: B1; assay: self-cleavage kobs at 10000 uM GlcN6P; higher = faster cleavage; RNA array
Method in brief: as §1

Variant	self-cleavage kobs at 160 uM GlcN6P [1]	self-cleavage kobs at 640 uM GlcN6P [2]	self-cleavage kobs at 2500 uM GlcN6P [3]	self-cleavage kobs at 10000 uM GlcN6P [4]
C11A C50G C61U	0.000476 ± 0.00011 s⁻¹	0.000601 ± 0.00018 s⁻¹		
C10U A33C G43U G44A C67G	< 1e-05 s⁻¹	< 1e-05 s⁻¹	< 1e-05 s⁻¹	
C11G A64U U65A	< 1e-05 s⁻¹	< 1e-05 s⁻¹	< 1e-05 s⁻¹	
G7C C58A	< 1e-05 s⁻¹	< 1e-05 s⁻¹	< 1e-05 s⁻¹	< 1e-05 s⁻¹
C11A C34U G35C	< 1e-05 s⁻¹		< 1e-05 s⁻¹	
C8U G41C G62U C68U	< 1e-05 s⁻¹	< 1e-05 s⁻¹	< 1e-05 s⁻¹	
C8U G40U	< 1e-05 s⁻¹		< 1e-05 s⁻¹	< 1e-05 s⁻¹
G9U A12G	< 1e-05 s⁻¹	< 1e-05 s⁻¹	< 1e-05 s⁻¹	< 1e-05 s⁻¹
C8U C71G	< 1e-05 s⁻¹	< 1e-05 s⁻¹	< 1e-05 s⁻¹	
G9U A48U	< 1e-05 s⁻¹		< 1e-05 s⁻¹	< 1e-05 s⁻¹
C10G G66C	< 1e-05 s⁻¹	< 1e-05 s⁻¹		< 1e-05 s⁻¹
C10G G32A A33G C61A G63A	0.00144 ± 0.00069 s⁻¹			
C10G G43U C50A	< 1e-05 s⁻¹		< 1e-05 s⁻¹	
C11U A14G C70U	0.00076 ± 0.00021 s⁻¹	0.000656 ± 0.00014 s⁻¹	0.00193 ± 0.0006 s⁻¹	
G9C U56A	< 1e-05 s⁻¹	< 1e-05 s⁻¹	< 1e-05 s⁻¹	
C11G G37C G40A U45A C70U	< 1e-05 s⁻¹			
G7U U46A C50G G60A U65G U69A	0.000502 ± 0.00021 s⁻¹			
C10G G32U U54G C68A	5.61e-05 ± 2.2e-05 s⁻¹			
G7C C68G	< 1e-05 s⁻¹	< 1e-05 s⁻¹	< 1e-05 s⁻¹	< 1e-05 s⁻¹
C11A C16U G44U A53G C71G	< 1e-05 s⁻¹	< 1e-05 s⁻¹		
C8U C10A G62A	< 1e-05 s⁻¹	< 1e-05 s⁻¹		
C8U A33G C34G A36U U65C	< 1e-05 s⁻¹		< 1e-05 s⁻¹	
G7U A15U G51U C61U C67G	< 1e-05 s⁻¹	< 1e-05 s⁻¹		
C10A C16G	< 1e-05 s⁻¹			< 1e-05 s⁻¹
G7C C70G	< 1e-05 s⁻¹	< 1e-05 s⁻¹	< 1e-05 s⁻¹	

Variant	self-cleavage kobs at 160 uM GlcN6P [1]	self-cleavage kobs at 640 uM GlcN6P [2]	self-cleavage kobs at 2500 uM GlcN6P [3]	self-cleavage kobs at 10000 uM GlcN6P [4]
C8A G60U U69A	< 1e-05 s⁻¹	< 1e-05 s⁻¹		
C8A C61U A64C C67U	< 1e-05 s⁻¹	< 1e-05 s⁻¹	< 1e-05 s⁻¹	
G9A G41A	< 1e-05 s⁻¹	< 1e-05 s⁻¹	< 1e-05 s⁻¹	< 1e-05 s⁻¹
C10G A39U	< 1e-05 s⁻¹	< 1e-05 s⁻¹		
G7A G35U	< 1e-05 s⁻¹	< 1e-05 s⁻¹		< 1e-05 s⁻¹
C10G C11G G37C A53G	< 1e-05 s⁻¹		< 1e-05 s⁻¹	
G7U U45A	< 1e-05 s⁻¹		< 1e-05 s⁻¹	
G9U A42C	< 1e-05 s⁻¹		< 1e-05 s⁻¹	
C8G C16A G35U	< 1e-05 s⁻¹		< 1e-05 s⁻¹	
C10A A12G A15G C61A	< 1e-05 s⁻¹			
G9A A52G	< 1e-05 s⁻¹	< 1e-05 s⁻¹	< 1e-05 s⁻¹	
G9A C11G A12G A15U C16A U30C G32A A48G G59U G60U	< 1e-05 s⁻¹		< 1e-05 s⁻¹	
G9U C16U U57G C68U	< 1e-05 s⁻¹	< 1e-05 s⁻¹		
C8A G44C	< 1e-05 s⁻¹	< 1e-05 s⁻¹	< 1e-05 s⁻¹	
C10G U55A	< 1e-05 s⁻¹	< 1e-05 s⁻¹		
C10G C11U G13C A36C G43C	< 1e-05 s⁻¹	< 1e-05 s⁻¹	< 1e-05 s⁻¹	
G9C G38A C70U	< 1e-05 s⁻¹	< 1e-05 s⁻¹	< 1e-05 s⁻¹	
C11A A39U C61U C70G	< 1e-05 s⁻¹	< 1e-05 s⁻¹	< 1e-05 s⁻¹	
C11U A15G C68U	4.79e-05 ± 2.4e-05 s⁻¹	9.88e-05 ± 2.1e-05 s⁻¹	0.000318 ± 8.7e-05 s⁻¹	
C8G U57G	< 1e-05 s⁻¹	< 1e-05 s⁻¹	< 1e-05 s⁻¹	
C8G G9U A12U C16G	< 1e-05 s⁻¹	< 1e-05 s⁻¹		
G7U G35A G59C	< 1e-05 s⁻¹		< 1e-05 s⁻¹	
G7A U49A	< 1e-05 s⁻¹	< 1e-05 s⁻¹	< 1e-05 s⁻¹	< 1e-05 s⁻¹
G7U A12U U56G	< 1e-05 s⁻¹	< 1e-05 s⁻¹		
G7U C16G U30G G59A U69G	< 1e-05 s⁻¹			
